The test system of this experiment is BMS human breast cancer cells. As to the kind of experiment: Tumor cell adhesion under stationary conditions. Format: cell-based. Particulars: 3 μM scFv. As to the method:
FIGS. 3A, 3B, 3C, 3D, 3E. scFv Bc-12 and Bc-15 inhibit αvβ3 mediated adhesive breast cancer cell functions. (A) Adhesion of BMS human breast cancer cells to fibrinogen (Fg), vitronectin (VN) or type I collagen (Col I) in the absence or presence of 3 μM Bc-12, Bc-15 or their RGE mutants Mut-12, Mut-15, compared to 200 μM GRGDSPK peptide (SEQ ID NO: 11). Protein coating concentrations: 10 μg/ml (VN, Col I) or 20 μg/ml (Fg). Adhesion time: 30 min at 37° C. (B) Effect of scFvs on haptotactic BMS cell migration toward a fibrinogen substrate (16 hrs at 37° C. in transwell chambers with or without 2 μM Bc-12, Bc-15 or their RGE mutants Mut-12 or Mut-15, compared to 200 μM GRGDSPK peptide) (SEQ ID NO: 11). (C) Effect of scFvs on breast cancer cell arrest during blood flow. Metastatic BMS cells, labeled with hydroethidine, were suspended in human blood (anticoagulated with 50 nM PPACK) and perfused over a collagen I matrix at a venous wall shear rate of 50 s^−1. Under these conditions, breast cancer cells arrest by αvβ3 mediated binding to adherent, thrombus forming platelets. Tumor cell adhesion was quantified by image acquisition at 30 predefined positions during blood flow. Left: representative images of platelet signal (thrombi, green fluorescence) and tumor cell signal (red fluorescence) at identical x,y positions. Right: Number of arrested tumor cells in the presence of 3 μM non-function blocking anti αv scFv Bc-20 or function blocking anti αvβ3 scFvs Bc-12 or Bc-15. (D) scFv Bc-15 is internalized by human breast cancer cells and reduces cell proliferation. Left: confocal images of BMS cells incubated for 4 hrs with FITC-Bc-15 at 4° C. (binding) versus 37° C. (allowing internalization). Right: Phase contrast images of BMS cell cultures 4 days after seeding in the presence of 2 μM RGE containing scFv Mut-15, or RGD containing Bc-15. (E) Effect of scFv Bc-12 on the viability of matrix deprived BMS breast cancer cells in ultra-low-adhesion plates in the presence or absence of 3.7 μM scFv, or 14.36 μM camptothecin as apoptosis inducing control. Measurement of apoptosis was based on cytoplasmic histone-associated DNA fragments after 20 hrs.
Cell adhesion and migration. Tumor cell adhesion under stationary conditions was analyzed as detailed earlier (19). Adhesion buffer was Hanks balanced salt solution (HBSS) pH 7.4, 0.5% BSA, 1 mM MgCl2, 0.2 mM MnCl2. For inhibition, cells were incubated for 5 min at RT either with 3 μM scFv or 200 μM GRGDSPK (SEQ ID NO: 11) peptide, then plated in the presence of inhibitor and allowed to attach for 30 min at 37° C. Haptotactic tumor cell migration toward fibrinogen was analyzed in transwell chambers as detailed earlier. Rolli, M., et al., Proc. Natl. Acad. Sci. U.S.A 100: 9482-9487, 2003. […]

B1: Bc-12: patient derived human scFv antibody against activated αvβ3 with RGD motif in CDR-H3; cDNA ATCC PTA-6303 (protein)
scFv: MAQVQLVQSGAEVKKPGASVKVSCKASGYTFSNYGITWVRQAPGQGLEWMGWINNGNTHYAQKFQGRVTMTTDTSTSTAYMELRSLRSDDTAVYYCARDPRGDDEPYWGQGTLVTVSSGGGGSGGGGSGGGGSEIVLTQSPLSLPVTLGQPASISCRSSQNLVYSDGNTYLSWFQQRPGQSPRRLIYKVSNRDSGVPDRFSGSGSGTDFTLKISRVEAEDIGVYYCMQGTHWPPRTFGQGTKVEIKRGLGGLVDYKDDDDK
In the case of B1, the “adhesion to collagen type I” value is “no effect”; the attachment to vitronectin entry was “inhibited by Bc-12 and Bc-15, but to a lesser degree”. Moreover, the “adhesion to immobilized fibrinogen” value (30 min at 37° C.) is listed as “efficiently inhibited”.

The record behind these values is patent publication US7271245B2, “Methods and compositions for inhibition of metastasis” (The Scripps Research Institute, priority 2004, dated 2007).
